experiment: soluble on expression in E. coli; label from the status in PepcDB or PDB records

Row | Sequence | soluble on expression in E. coli
1 | MGSDKIHHHHHHMKISVLGAGCIGGSIALKLKEKHHVTAFDRDEETMKALEENGIETVSKESDLYDTDLLVLALPMSVEERFLKETDFSGKILDVASVKTPFMEIARERGLNFTGGHPMAGNERKGKSGWDREMFDGKIFFLCSLDGKEDGMIENIVKDLGARPLWIDYRIHDEIVAAVSHVQYLISLSARYVGKPFEEYAGPGYLSNTRLSKQNMEMALDMIRYNKENILKYLENARNFLNVLYHLTEKEDFENLKKVIREVIS | not soluble
2 | ENLKLGFLVAQPEEPASQTQWKFADKAGKDLGFEVIKIAVPDGEKTLNAIDSLAASGAKGFVISTPDPKLGSAIVAKARGYDMKVIAVDNQFVNAKGKPMDTVPLVMEAATKIGERQGQELYKEMQKRGWDVKESAVMAITANELDTARRRTTGSMDALKAAGFPEKQIYQVPTKSEDIPGAFDAANSMLVQHPEVKHWLIVGMNDSTVLGGVRATEGQGFKAADIIGIGINGVDAVSELSKAQATGFYGSLLPSPDVHGYKSSEMLYNWVAKDVEPPKFTEVTDVVLITRDNFKEECEKKGLGGK | soluble
3 | MTNITASIVLYNNPIDQIRQCIESMQADTRVHVLLVDNSEKKGGYTGLAADNVEILDAPGNVGFGRGHNLVLGRLAALRSEVHLVVNPDIVVSAGCVQAVADVLRQRKDVTLVGPRVVSPDGALYRSCKLLPTPWNLFARRFAPRQLYAAADARYELEAFGYDRELRLHNLSGAFLAFRSEAFTALGGFDPRYFMYLEDVDICRRAAGLGAVIFLPQAEVVHEHGKGSYRSWRLLREHMRSAILYFNRFGWFVDAERRLLNRETLARVNDMRSVVLEHHHHHH | not soluble
4 | MPYDFYTDGSALGNGQQGSRGGYGVHVPSDTSKNVSGSYPHGPQTNNRYELEAIKHATQMARDVPDSHVRIHTDSKNAKDSVTKWNDNWKSNGYKTSSGQDVKNQDLIRDIDRNVQALKHSGKTVEFEHVRGHSNRMYI | not soluble
5 | MASMTGGQQMGRGSMQNPSVTISVNANAGRHPINPAVYGLAYATTATLADLNVPLHRYGGNNTSRYNWQLNADNRGADWYFESIGEASSVAGERGDTFIANSQAAGAQAMITIPTIGWVARLGANRSKLASFSIAKYGAQSGNDWQWFPDAGNGVLTSGQNVTGNNPNDANTLVDSTFQQGWAQHLVSQWGTAAGGGLRYYILDNEPSIWFSTHRDVHPVGPTMDEIRDKMLDYGAKIKTVDPSALIVGPEEWGWSGYTLSGYDQQYGGLHGWSFMPDRNNHGGWDYLPWLLDQLRQNNLSTGRRLLDVFSVHYYPQGGEFGNDTSSAMQLRRNRSTRSLWDPNYIDETWINDKVQLIPRLKNWVSTYYPGTLTAITEYNWGAESHINGATTQADILGIFGREGLDMAARWTTPDTATPTYKAIKMYRNYDGNKSAFGDTSVTATAPNPDNVSAFAAVRSSDGALTVMVINKYLSGNTPATINLSNFTAQAQAQVWQLTAANTINHLSNVSLSGSSLSLTLPAQSVTLLVIPAST | soluble
6 | MGSDKIHHHHHHVAAESKTIAIALNNDFINNLDLSPASTVIEQLLRDGAASHEQQLRFDINYDLEPGDPRELSEIPEIRLWFVRLDAKYPWLAFLLDWKAGEFARYAAMLVPHQFSSQDGIQYNPEALEIFLMHKIFILGDWLKQQDIPSLSRLKSMAQMLGYELDDAFFEIF | not soluble
7 | MIISTDLQLLISPMQWDQVASEIAQQLSAVGYNVTDIRAEVIDLTCEPDNMLVNQWQQEHGTIPTSEQLHRVVITGEFDGELRKATECVVRQLPEGSYWYGTSLVGEIEPSVTAACAWQADV | not soluble
8 | MGSDKIHHHHHHMDKFLYIAMSGAKQGMNALAVSANNLANANTDGFKADMVQARSMQAFGEGLPTRVFSMMESPGSNFNGGPIKTTGRDLDIAVKGDGWLAVQAADGSEGYTRAGSLKIDSTGMLLNSSNRPVMGASGPIVLPIPVEKIEISANGIISVRPQGATAEVIEEVARIKLVNPGNENLMRGEDGLFRLIAGGNAPNDPGVQVESGAVEGSNVNSVHEMVAMIDIQRQYEMQVKMMKNAEEIDRASTSLMRIS | not soluble
9 | MNYSLKQLKVFVTVAQEKSFSRAGERIGLSQSAVSHSVKELENHTGVRLLDRTTREVVLTDAGQQLALRLERLLDELNSTLRDTGRMGQQLSGKVRVAASQTISAHLIPQCIAESHRRYPDIQFVLHDRPQQWVMESIRQGDVDFGIVIDPGPVGDLQCEAILSEPFFLLCHRDSALAVEDYVPWQALQGAKLVLQDYASGSRPLIDAALARNGIQANIVQEIGHPATLFPMVAAGIGISILPALALPLPEGSPLVVKRITPVVERQLMLVRRKNRSLSTAAEALWDVVRDQGNALMAGREGDPLYQI | soluble
10 | MTNLEIEYKTLLTKNEYNRLLSQMKHVTPVTQTNYYIDTKAFDLKANKMSLRIRTFVNSAELTLKVPEKVGNREYNVPLFLEQAKDMIKHGNLPESTALDIIISKGIKPSALVTFGNLTTVRRETVIPIGKLALDYNLYANTKDYELELEVSDALQGKIDFDSFLSEYHITFKYAKSKVARCINTLKKFNDK | not soluble
11 | MDNLKDFKNEALVVTNASDGNTPHIVQGIEPDGSLRTKPLAQAKPSETFLHIDRNKSVIGTFFSNMNRQYDRPSDFRFYHLPVEMLSAAKDLVEIFKFPEENGQLLSNYAIDIRQPAQEQSITGDTPQQTTRWGVDEVDWQQLARMGVTPESLGETGMQRLLNGHESAVLDIRISFEGIDFETPACIRLVESAGGKPVLNVECCKRYPELDRPYMGTELSPEVKENLSRSNNAGCVVELELAGGVREPCLLSLNPKTNRLHHVPVSEITIPQEVNRVRLSDDQTTRLARGESVLVENMWSEKKQGYYDARLQYNVCKGGFTYDFRGLNRKQAQSETQMRSRELVIPQVLKGVGLTPEVREKLAAGKTVHIKDMTDNEGNLFSAFVRVNHERAKFDFFKWNPDKSKKQGQSQQAAVRQEGTKPENTVSRNRPVQKTDKKGVSI | not soluble
12 | MQLRSVIAADHPALFALWSRTPGIRLRAEDAYPFFLAYLQRNPGLSLLVETEGEVIACLMAGHDGRRGYLQHLVVDPGYRGLGLARRMLDEVLARLAREGIGKSHVFVLDAAEEAQAFWRAQSDWERRKDIQVFSTREGHA | soluble
13 | ATPALRFVAVGDWGGVPNAPFHTAREMANAKEIARTVQILGADFILSLGDNFYFTGVQDINDKRFQETFEDVFSDRSLRKVPWYVLAGNHDHLGNVSAQIAYSKISKRWNFPSPFYRLHFKIPQTNVSVAIFMLDTVTLCGNSDDFLSQQPERPRDVKLARTQLSWLKKQLAAAREDYVLVAGHYPVWSIAEHGPTHCLVKQLRPLLATYGVTAYLCGHDHNLQYLQDENGVGYVLSGAGNFMDPSKRHQRKVPNGYLRFHYGTEDSLGGFAYVEISSKEMTVTYIEASGKSLFKTRLPRRARP | soluble
14 | MTFSDPMDPSIPIFQHHEEEEAGPSTTIKAEEEDGPCCLVCGRVANTGHHYGVTACLGCKTFFRRVVLQKNSPKCKYKNHCRLEKSVNAKRLCRSCRYQKCLEVGMTEDALHPCRDVIGRRVRNNSSDSSPISSPPSIPTPLSICKLMNLSEGDHKLLQTITDMDTDIRTRTAHILGEPANGNEQIHFYSPTPDYTNVIVNHGIGPSLKVDILLLREWVDRIPGFRELSERFQQHLMHRFCLRYTVIEHGLFTAQMPYHKNVWFLSDRTCLVSEFENLPQEIKKHLTPKVINEQQLLASFTEMLIHEVADPLRRLKPDSVEVATVKTLMLLKPTCLREIDGDYLSTETDIKSVNDVRNRVINGLYSHYIKNGMDPEQLPIRVSEILNLTGGVEQCAARALEEMHPTRVFNLSSFDPYSSNVIFGYYRDV | not soluble
15 | MGSDKIHHHHHHKKVIKTMMIAGQDGSHYWRGACEAMKQILENSGMFKVDFVFTPDFGGDINTFKPDFAKYNLVVVNYGGEVWPEPVQKAFENYVADGGGVVIIHSSVVPMAGWKAYNEIIGMGAWEGRNEKDGPYLYWKEGKYVYDYTPGYAGYHGLQHETILEHRAPEHPILKGLPIRWKHFKDEIYTRLRGPVRNVEILATAYERGRHEPLMWTVKWGKGRVFVDLLGHCGNDPNMIYSMECTGFQVTLLRGAEWAATGEVTQEAPRDFPLEDTCTLRPEFKAPFHATN | not soluble
16 | MGSDKIHHHHHHMSTEHLLLVSLLKKLKDDALVLPTLPEVAMRVQEVVGRSDASLKQVAEVIGQDAAISARIIKVANSALYSRGVPAESINSAVSRIGLIQIKSIATSVAMEQLFISTNEMVWEVMDEVWRTSIDVTAAACAMLQMYNKRHSTSRLNFDTLTLAGLVHNIGALPVLTEAEAQPHLFTSIDQLRALVRKMQGPLGRAVLKSWDFSTEVMEVVERWADLPYLPDHVTYLDFIRAAAFYTGELRAGTELEQRLGVFVARGLPVTTDDLASDEFMEKFHSIRESYQ | not soluble
17 | SLVSAQRAIIDPEGKVLINKVNFIDGGLKAPDEVVRKMVRMGTNIIGEPVCGLYPARLIALTSGYSARIPYTIDLDFWMQLLRLGKLWMIDEPLCAFRISNLSWSSRIGEMRHKQFLAFMEEVAADELFQINDLDLFIGRFNSAVQSMTSLMGFKLFAGSAAEKRVIAVQ | not soluble
18 | MEVVKMPFGVPGWKWKVGKFGYTVENEPNYEEIKAKAKEVLSRTTKGIAWRGHCGSLHIPLVFEGQIIGELWEDADPKEVEIGAYWFGKWGIKVQLVKDGRVIGFIWLA | soluble
19 | MELKDGESAGNAENDVEIENPEKSEKAEILQSLDKSLGKSTEESPEAKNLRYFKTKKIRFGPIEYQIVTQNINGPCPLIALINALVLKGKLTIPSSYVVTSTNLLNLLTNVILARAPPENDEKLKETFEANLGDVMNIMETLVNGLDVNVKFSAVDTFEFTPALSLFDLVSVNLYHVWLPDPQFTVLYDLIRNLNYNELVEKMCGDQSTETELLRTFYDESISQITFHGLASLMERMKDGELAVVFHNNHFSTILKRRDEIFKLVSDEGLCDEPNIVWETFSSVDGDCIFVNGDFGNFKPITPPTTHPSPESFEKLQISDNSPIEQGIEAVEHTSAHHSAPVSPQHRAPAPPAPQTARAPPETSPTRNSGAGGKSCLIM | soluble
20 | MTKPVVDVKNVQKVYGKKGENQSHALKGVSFSIQEGEFVGIMGPSGSGKTTLLNVISTLDKATGGVVEIAGTDITKMKQGELSDFRSQKLGFIFQDFNLLENLSIYENIALPLSLQGVPSRNIGPKVEKVADMLGISAILQKYPSEVSGGQKQRSAAARALVHEPAIILGDEPTGALDSKNATSLLDAMTNLNQEQGVSIMMVTHDPFSASYCQRILFIQDGELYKEIHRGGTREEFYKEILDVLADLGTQKA | not soluble
21 | MGSDKIHHHHHHMKFPLLLALLVGGASALHLSSETSDSKSPLMDENLPRDAEISGPEGEECPPGEELMPLEGEKEEGSGSEGVPGDEGAVSGQDVTDVDLQCPKEEDTTSLMGDSGCKTCRYLLVRRAECFDKAQSVCRRCYRGTLASIHSFSVNFGIQSAVRGINQGQVWIGGRIKGWGRCKRFRWVDGSSWNFAYWAAGQPCPGGGRCVTLCTQGGHWRLSHCVKRRPFICSY | not soluble
22 | MEFKNTKKDRLSDLENRFENANKHETNKHEKEDRKKAHTLYISEKVMNSVEEYLNEFGAFRENKSVFVQDAIIFYLEYKKKEMKQMLLDKASKL | not soluble
23 | GMEQHQVWAYQTKTHSVTLNSVDIPALAADDILVQNQAIGINPVDWKFIKANPINWSNGHVPGVDGAGVIVKVGAKVDSKMLGRRVAYHTSLKRHGSFAEFTVLNTDRVMTLPDNLSFERAAALPCPLLTAWQAFEKIPLTKQREVLIVGFGAVNNLLTQMLNNAGYVVDLVSASLSQALAAKRGVRHLYREPSQVTQKYFAIFDAVNSQNAAALVPSLKANGHIICIQDRIPAPIDPAFTRTISYHEIALGALHDFGDRQDWQILMQQGEALLTLIAQGKMEIAAPDIFRFEQMIEALDHSEQTKLKTVLTLNE | soluble

Source: the DeepSol protein solubility set
